Assay results reported in publication PMC5650531.

Target: His6-CCCP-1 (C. elegans CCCP-1, full length) (C. elegans)
Test: SEC-MALS

His6-CCCP-1 (C. elegans CCCP-1, full length) (natural protein)
stoichiometry N: 2
